Reference: the DeepSol protein solubility set

Assay: soluble on expression in E. coli; label from the status in PepcDB or PDB records

## MGKYFGTDGVRGVANQELTPELAFKLGRYGGYVLAHNKGEKHPRVLVGRDTRVSGEMLESALIAGLISIGAEVMRLGIISTPGVAYLTRDMGAELGVMISASHNPVADNGIKFFGSDGFKLSDEQENEIEALLDQENPELPRPVGNDIVHYSDYFEGAQKYLSYLKSTVDVNFEGLKIALDGANGSTSSLAPFLFGDLEADTETIGCSPDGYNINEKCGSTHPEKLAEKVVETESDFGLAFDGDGDRIIAVDENGQIVDGDQIMFIIGQEMHKNQELNNDMIVSTVMSNLGFYKALEQEGIKSNKTKVGDRYVVEEMRRGNYNLGGEQSGHIVMMDYNTTGDGLLTGIQLASVIKMTGKSLSELAGQMKKYPQSLINVRVTDKYRVEENVDVKEVMTKVEVEMNGEGRILVRPSGTEPLVRVMVEAATDEDAERFAQQIADVVQDKMGLDK
  soluble on expression in E. coli: not soluble

## MGSSHHHHHHSSGLVPRGSHMYLGRILAVGRNSNGSFVAYRVSSRSFPNRTTSIQEERVAVVPVEGHERDVFRNPYIAYNCIRIVGDTAVVSNGSHTDTIADKVALGMNLRDAIGLSLLAMDYEKDELNTPRIAAAINGSEAFIGIVTADGLMVSRVPEETPVYISTYEQTEPAATEFKAGSPEEAAEFILKGGEFAAFTHPVTAAAAFNDGEGWNLATREM
  soluble on expression in E. coli: soluble

## STSTSGLTARISQTLFTSNSFVEEVASILQHWDTGLEASKRRIQDAKEKNSTVLDLQQLELSNEIFNELWPSIREIRNLKYLNLFLNRLTELPSDFGALSTLETLNLACNPLQSVPDSFSDLAMLRELDLGFTSTLCTVPEIFEKMTQLKVLYAGNNRLEKLPESVISLQCLEELHLYGNALNALPENIGNLKSLRLLNVGRNNLSSLPNSIGSLSSLEVLYLYENDLSSLPRSMKDLSKLRVLGLDGNPSLSSLPEHIKEPNAKAVAAYYAEME
  soluble on expression in E. coli: soluble

## MGSDKIHHHHHHMVHVKMKGSKMLFEALLKEGVDTIFGIPGGAIINVYDELCNYEDKINFYLFRHEQGATHAADGYARVTGKPGVVIVTSGPGATNTVTGIATAYMDSIPIVVITGQVPTSFIGTDAFQEVDVTGITMPITKHNHLVTSIEELPYAIKEMFYVATTGRPGPVLLDFPKDIQTAEGEFNYPDTVEIPGYKPTVKGHPKQIKKAVELLKESKRPVVIVGGGANLSGAMDLVNQFIDKFKVPAVSTLMGRGVNPSDEKLYYEGIGMHGTYYGNYAVANADLIIALGVRFSDRILGNPRTFAKNARIVHVDIDPAEIGKNVRVDVPIVGDLKSVLEEFLKYEIETDFSDWIEELQEIKKKYPLTYKRDGKLIKPQYVVEKVNEVFPDDTVVVADVGQNQMWVAQFYKFKHQRSFLCSGGLGTMGYALPAGIGAKIGAPDKEVVVFAGDGGFQMNIQELMTIKRYNLPVKIIVMDNKALGMVRQWQQLFFNCRYSATILSDNPDFAKIAEAVGIKAMRIEKPDQVDEAIEKLAKSKEPMLIHAVVDPAENVLPMVPPGGDVGTPLIEAPYDETFVERVLKVIEESRRGDER
  soluble on expression in E. coli: not soluble

## MLESVVAYGIIAGARAITGLRSLWLGTTPIPKQRIYYANHSSHGDFVLLWASLPPEVRRRTRPVAGADYWNKAGLRSYVINKVFNGVLVDRQRSEANANPLEPLDRALDGGDSLIIFPEGTRNLDDEVKLLPFKSGIYHLSLAHPDVELVPVWLANLNRVMPKGRMLPLPLLCTLSFGKPLVATAEEGKEAFLERARMALLDLAPEEEA
  soluble on expression in E. coli: not soluble

## MEKYQALLANNVENTAKEALHQLAYTGREYNNIQDQIETISDLLGHSQSLYDYLREPSKANLTILENMWSSVARNQKLYKQIRFLDTSGTEKVRIKYDFKTSIAGPSLILRDKSAREYFKYAQSLDNEQISAWGIELERDKGELVYPLSPSLRILMPISVNDVRQGYLVLNVDIEYLSSLLNYSPVRDFHIELVKHKGFYIASPDESRLYGDIIPERSQFNFSNMYPDIWPRVVSEQAGYSYSGEHLIAFSSIKFVSNEPLHLIIDLSNEQLSKRATRDINDLIQESLEHHHHHH
  soluble on expression in E. coli: soluble

## MRSSQAIDFERIPEMEDKWRKEITAMTVTLQDKRKAIQNDEILRGVHPKSHGCLDAEFTVNRDIAPQFQVGLFAQPGKCFRARIRYSNADVLKRADLEKGQDATGARFLNHGSRGMAIKVLDVGAPVLLEDGCARNQDFLMVNTPEFAFRNVRDYLRLTKALCASADGADPLLFFLPGELLKRGMMDMSGSLLPAPAGEPPQNAGLRALFEANRAFFDDFDAEDMQGVISAAGVVGKIQSTPVRNPLFAPYFSAASFRFGKDRVMRFSVVPLQSEEMAADMASDAFEDFSDDYLSQALALSVATNEPIKLSFRIQIAHEEDIVNDIDGMIENAAKTWDEDQFSHTEVAQITINPPCPSAELVDTCKPLLFTPWHAVVDFEPLGGINRLRKPVYSTSAAFRRSVLEHHHHHH
  soluble on expression in E. coli: not soluble

## MGSDKIHHHHHHMDPRSEVLLRQAELFQGPLLIAGAPADDLLGQLPQAQAWTWHAGDQAMLESRFAGRSHYGVEAPEAAFDSAVLFLPKSRELAAYLLNALASRLAGRELYLVGEKRGGIEGAAKQLQAFGKPRKLDSARHCQLWQVTIDQAPQAKPLESLAERFELALEDGPLQVVSLPGVFSHGRLDRGTALLLKHLDGLPGGHMLDFGCGAGVLGATLKRRYPQSRVTLLDVDAFAVAASRLTLAANGLEGEVISGDGIDAAPTELSLILSNPPFHTGVHTNYQASENLLKKSAVHLRKGGEMRLVANSFLRYQPLIEGALGNCQVRDEADGFRIYQATRG
  soluble on expression in E. coli: not soluble

## MGSDKIHHHHHHMMRALYTAATGMRAEQTNVDTIANNLSNVNTTGFKGQRTEFKSLLYQTIQTRSTSGNGDAKPVGAQVGLGTRVAATTSTYTQGPLNSTERPTDFALEGDGFFAVRGTDNQTYYTRNGAFTWSQYGNGQTILTDSQGNPVMDTNGNIIAVPAGVSAEKMSFGEDGAVGYMTAQGNYINLNQRIAVYQFNNPSGLEKQSGSLLAATANSGNPMLEIANPALKSSKVVTGYLEGSNVQVADEMVNLIVAQRAYELNSKAITTADSMLETANNLRR
  soluble on expression in E. coli: not soluble

## MSLIIRKLFEFENAHIVRFCSSKRCKSSIHGHSYKVEVLLESKYLDNAGMVYDFGLLKTYIRQIIDSFDHAITLFKYDDAKYLEEMKKYSSRWICLPVNVSAENFCRVFFILIDALLKQTKMVNGEQGVTLQSIIVHETRTGYAQGFREDAYSELMPKISLQDIEFSNGIKAEWNDIDFYNKLKNEEIFINPKEEGHHHHHH
  soluble on expression in E. coli: soluble

## PHSHPALTPEQKKELSDIAHRIVAPGKGILAADESTGSIAKRLQSIGTENTEENRRFYRQLLLTADDRVNPCIGGVILFHETLYQKADDGRPFPQVIKSKGGVVGIMVDKGVVPLAGTNGETTTQGLDGLSERCAQYKKDGADFAKWRCVLKIGEHTPSALAIMENANVLARYASICQQNGIVPIVEPEILPDGDHDLKRCQYVTEKVLAAVYKALSDHHIYLEGTLLKPNMVTPGHACTQKYSHEEIAMATVTALRRTVPPAVTGVTFLSGGQSEEEASINLNAINKCPLLKPWALTFSYGRALQASALKAWGGKKENLKAAQEEYVKRALANSLACQGKYTSSGQAGAAASESLFISNHAY
  soluble on expression in E. coli: soluble

## MSLIRIGHGFDVHAFGEDRPLIIGGVEVPYHTGFIAHSDGDVALHALTDAILGAAALGDIGKLFPDTDMQYKNADSRGLLREAFRQVQEKGYKIGNVDITIIAQAPKMRPHIDAMRAKIAEDLQCDIEQVNVKATTTEKLGFTGRQEGIACEAVALLIRQEGGSHHHHHH
  soluble on expression in E. coli: soluble

## MPNIVLSRIDERLIHGQVGVQWVGFAGANLVLVANDEVAEDPVQQNLMEMVLAEGIAVRFWTLQKVIDNIHRAADRQKILLVCKTPADFLTLVKGGVPVNRINVGNMHYANGKQQIAKTVSVDAGDIAAFNDLKTAGVECFVQGVPTEPAVDLFKLL
  soluble on expression in E. coli: soluble

## MGSDKIHHHHHHMSSSQQIAKNARKAGNILKTISNEGRSDILYKIHDALKANAHAIEEANKIDLAVAKETGLADSLLKRLDLFKGDKFEVMLQGIKDVAELEDPVGKVKMARELDDGLTLYQVTAPVGVLLVIFESRPEVIANITALSIKSGNAAILKGGKESVNTFREMAKIVNDTIAQFQSETGVPVGSVQLIETRQDVSDLLDQDEYIDLVVPRGSNALVRKIKDTTKIPVLGHADGICSIYLDEDADLIKAKRISLDAKTNYPAGCNAMETLLINPKFSKWWEVLENLTLEGGVTIHATKDLKTAYFDKLNELGKLTEAIQCKTVDADEEQDFDKEFLSLDLAAKFVTSTESAIQHINTHSSRHTDAIVTENKANAEKFMKGVDSSGVYWNASTRFADGFRYGFGAEVGISTSKIHARGPVGLDGLVSYQYQIRG
  soluble on expression in E. coli: not soluble
